# Laboratory results as given in patent publication US20240368239A1, “Novel bispecific protein and use thereof” (SL METAGEN, priority 2020, published 2024).
# “Also recorded” adds a separate entry of the source.
# B1: MG12-5: Knob/hole Fc heterodimer: GLP-1/Exendin 4 hybrid (SEQ 5), unmodified linker, first fusion protein SEQ 28; GLP-2 (SEQ 17), second fusion protein SEQ 34 (protein)
# chain 1: HGEGTFTSDVSSYLEGQAAKEFIAWLVKGGPSSGAPPPSGGGGSGGGGSGGGGSEKEKEEQEERTHTCPPCPSHTQPLGVFLFPPKPKDQLMISRTPEVTCVVVDVSQEDPEVQFNWYVDGVEVHNAKTKPREEQFNSTYRVVSVLTVLHQDWLNGKEYKCKVSNKGLPSSIEKTISKAKGQPREPQVYTLPPCQEEMTKNQVSLWCLVKGFYPSDIAVEWESNGQPENNYKTTPPVLDSDGSFFLYSRLTVDKSRWQEGNVFSCSVLHEALHNHYTQKSLSLSLGK
# chain 2: HGDGSFSDEMNTILDNLAARDFINWLIQTKITDGGGGSGGGGSGGGGSEKEKEEQEERTHTCPPCPSHTQPLGVFLFPPKPKDQLMISRTPEVTCVVVDVSQEDPEVQFNWYVDGVEVHNAKTKPREEQFNSTYRVVSVLTVLHQDWLNGKEYKCKVSNKGLPSSIEKTISKAKGQPREPQVCTLPPSQEEMTKNQVSLSCAVKGFYPSDIAVEWESNGQPENNYKTTPPVLDSDGSFFLVSRLTVDKSRWQEGNVFSCSVLHEALHNHYTQKSLSLSLGK
# Tests used:
# [1] = tested on: B6 normal mice; test: Small intestine changes and nutrient absorption changes (GLP-2-2G, GLP-2-Fc homodimer, MG12-5); assay type: in vivo
# Method: In order to observe changes in the small intestine and nutrient absorption capacity following substance administration, an experiment was conducted in B6 normal mice. PBS and GLP-2-2G were administered twice a day, and GLP-2-Fc homodimer and MG12-5 were administered once every three days for 2 weeks. For the GLP-2-Fc homodimer and MG12-5 groups, PBS was administered twice a day, as was in the other administration groups, during the period when no drug was administered. Body weight and dietary intake were monitored at 3-day intervals, and feces were collected before administration, on days 5-6 after administration, and on days 11-12 after administration, and calorimetry was performed using a bomb calorimeter, and also, feed ingested during this period was also subjected to calorimetry through the same analysis. The energy absorption rate was defined as a value obtained by subtracting the calorific value of feces from the caloric value of ingested feed. On day 14 following drug administration, the experimental animals were sacrificed and the small intestine (pylorus ileum) was weighed.
# [2] = tested on: C57BL/6J male mice on CD-HFD; test: Choline-deficient high-fat diet (CD-HFD) metabolic syndrome model; assay type: in vivo
# Text: To this end, in particular, with respect to experimental animals induced with fatty liver and steatohepatitis through high-fat diet, as shown in FIG. 13a and Table 8, the present inventors performed a choline-deficient high-fat diet ([…]) for 12 weeks using 8-week-old C57BL/6J male mice, and then 20 nmol/kg of MG12-5, MG12-8, and each of 10 nmol/kg of GLP-1 and GLP-2 combination (combo) were administrated twice subcutaneously twice to experimental animals respectively, along with a CD-HFD diet for 4 weeks, and various serological and histological analyses were performed.
# First, the present inventors recorded changes in body weight and food intake of experimental animals during the experiment period.
# As described above, after 16 weeks on CD-HFD, mice treated with drugs (MG12-5, MG12-8, and GLP-1 and GLP-2 combo) twice a week for 4 weeks, after food restriction 12 hours, were intraperitoneally administered with glucose at a dose of 2 g/kg, and changes in blood glucose level were measured at a time interval for a total of 3 hours. […] FIG. 14b is a graph showing the area under the curve related to changes in blood glucose level.
# The present inventors sacrificed and extracted liver tissues from a mouse having completed the drug administration experiment as described above, and captured photographs thereof to examine changes in the size and color of the liver tissues, and measured the weight of the extracted liver tissues as well as ALT blood level, which is a measure of hepatotoxicity level.
# [3] = tested on: B6 normal mice; test: MG12 vs. GLP-1 and GLP-2 combo: body weight and small intestine changes; assay type: in vivo; settings: 12 days SC
# Method: In particular, in order to observe changes in body weight and the small intestine following the substance administration, an experiment was conducted in B6 normal mice. […] After starting drug administration twice a week during the test period, feed intake was measured and expressed as cumulative feed intake, and pre-autopsy body weight was measured to calculate the body weight vs. feed intake. After the autopsy, the weight of the small intestine, and mucosal depth and villus height of the duodenum and the jejunum were measured. More specifically, after the autopsy, the entire gastrointestinal tract of the mouse was separated, the mesentery and the pancreas were excised, and the area where the ileum and the cecum meet was cut to separate the small intestine and the large intestine.
# [4] = In vivo pharmacokinetics profile after subcutaneous administration (GLP-1-Fc ELISA and GLP-2-Fc ELISA); design: species or system male SD (Sprague Dawley) rats; settings: for AUClast / Cmax / Half-life / Tmax: 1 mg/kg SC
# Method: First, each protein was administered to 3 male SD (Sprague Dawley) rats per group at a dose of 1 mg/kg by subcutaneous (SC) route. Before injection and after 0.5, 1, 5, 10, 24, 48, 72, 120, and 168 hours after the injection, blood was collected and stored at room temperature for 30 minutes to aggregate. After centrifuging the aggregated blood at 3,000 rpm for 10 minutes, serum of each sample was collected and stored in a cryogenic freezer. Analyses were performed by an assay designed to specifically detect the GLP-1 site and Fc in the administered protein (GLP-1-Fc ELISA) and an assay designed to specifically detect the GLP-2 site and Fc in the administered protein (GLP-2-Fc ELISA). Specifically, a method of loading a biological sample on a plate coated with an antibody that binds to mouse-derived human immunoglobulin G4 (IgG4) to detect the target protein using a biotinylated anti-GLP-1 antibody (GLP-1-Fc ELISA), and a method of loading a biological sample on a plate coated with a monoclonal antibody that specifically reacts with GLP-2, to detect the target protein using a secondary antibody having HRP conjugated to mouse-derived human immunoglobulin G4 (IgG4) (GLP-2-Fc ELISA) were used. The obtained and prepared serum samples were loaded with appropriate dilutions to be analyzed at a position on a straight line of the standard curve.
# [5] = tested on: Balb/c-nude mice; test: PET-MRI tissue distribution of Zr89-labelled proteins; assay type: in vivo; settings: Zr89 label, SC
# Text: Next, the present inventors performed an experiment in Balb/c-nude mice in order to observe the distribution in each tissue organ following the administration of a substance. Zr^89 was used as a radiotracer for tracking the distribution after administration of each substance. Each substance to be administered was labeled with Zr^89 as a reaction condition and a chelator selected through a preliminary test. The labeled Zr^89-protein was purified using a PD-10 column, and Zr^89 labeling efficiency and purity were confirmed using Radio TLC and SEC-HPLC. The labeling efficiency of the Zr^89-protein of 90% or more and the purity of 80% or more were determined to be appropriate, and the labeled protein was administered subcutaneously at 0.2 mCi/0.2 cc. Each administration substance was administered to three animals and static images for 20 minutes were obtained using PET-MRI at 1 hour, 6 hours, 24 hours, 48 hours, and 168 hours after injection. Through image analysis, the distribution of drugs as a function of time in the liver, small intestine, and large intestine was expressed as SUV (Standardized Uptake Value) and comparatively analyzed.
# [6] = 20 nmol/kg SC, 4 weeks with CD-HFD
# [7] = excised liver at end of experiment
molecule,measurement,setting,value
B1,body weight,[1]; 2 weeks dosing,an increase significant compared to the negative control group; also recorded: statistically significant body weight increase compared to other drug administered groups
same,energy absorption rate,"[1]; Week 1, after the second dose",statistically significant increase compared to the vehicle-administered group
same,energy absorption rate,"[1]; Week 2, after the fourth dose",an increase even more significant than GLP-2-Fc homo
same,small intestine weight,"[1]; day 14, 2 weeks dosing",most notable increase in the small intestine weight; also recorded: statistically significant increase compared to the other two drug administered group; also recorded: superior effect of increasing small intestine weight to GLP-2-2G and GLP-2-Fc homodimer
same,body weight (relative change),[2]; [6],greater relative body weight reduction effect
same,feed intake,[2]; [6],lower feed intake
same,blood ALT level,[2]; after 16 weeks of CD-HFD diet,decrease in ALT level to a level similar to that of the normal diet group
same,liver color,[2]; [7],liver color similar to that of the normal diet group
same,liver weight,[2]; [7],reduced
same,"blood glucose level, intraperitoneal glucose tolerance test","[2]; glucose 2 g/kg i.p. after 12 hours food restriction, 3 hours",statistically significant decrease in blood glucose level
same,area under the curve of the change in blood glucose level,[2]; intraperitoneal glucose tolerance test,decreased two times or more
same,body weight increase vs. feed intake,[3]; normalized to cumulative feed intake,statistically significant body weight increase compared to the co-administered group
same,small intestine weight,"[3]; Ex-4 10 nmol/kg, others 33.3 nmol/kg",statistically significant increase in the small intestine compared to the co-administered group
same,"terminal half-life, rank among MG12-1, 3, 4 and 5",[4]; GLP-2-Fc ELISA,shortest half-life
same,"Cmax, rank among MG12-1, 3, 4 and 5",[4]; both ELISA methods,highest value
same,AUClast,"[4]; rat, GLP-1-Fc ELISA (Table 5)",26.0596 ± 3.0285 µg·h/mL
same,Cmax,"[4]; rat, GLP-1-Fc ELISA (Table 5)",1036.2 ± 59.5 ng/mL
same,Half-life,"[4]; rat, GLP-1-Fc ELISA (Table 5)",18.4 ± 6.2 h
same,Tmax,"[4]; rat, GLP-1-Fc ELISA (Table 5)",10 h
same,AUClast,"[4]; rat, GLP-2-Fc ELISA (Table 6)",188.7416 ± 7.8705 µg·h/mL
same,Cmax,"[4]; rat, GLP-2-Fc ELISA (Table 6)",3201.3 ± 95.6 ng/mL
same,Half-life,"[4]; rat, GLP-2-Fc ELISA (Table 6)",30.6 ± 2.1 h
same,Tmax,"[4]; rat, GLP-2-Fc ELISA (Table 6)",24.0 ± 0.0 h
same,"AUClast, rank among MG12-1, 3, 4 and 5","[4]; rat, SC",highest
same,distribution to the liver (SUV),[5],reduced or showed no difference compared to Fc
same,distribution to the small intestine and large intestine (SUV),[5],significantly high compared to that of GLP-1-Fc homodimer and GLP-2-Fc homodimer
